From patent US20220089743A1 (Chugai, published 2022)
Positions count from the first letter of the chain named.

B1: DQN0344H0976/L0591//DQN0385H1270/L0681-F6 (bispecific antibody)
heavy 1: QVQLVESGGGVVQPGGSLRLSCAASGFTFSSAYWMVWVRQAPGQGLEWMGAVYGGSDTTYYAKWTEGRFTISRDTSKNTLYLQMNSLRAEDTAVYYCAREPLNYYYYGELNLWGQGTLVTVSSASTKGPSVFPLAPSSKSTSGGTAALGCLVKDYFPEPVTVSWNSGALTSGVHTFPAVLKSSGLYSLSSVVTVPSSSLGTQTYICNVNHKPSNTKVDKRVEPKSCDKTHTCPPCPAPELRRGPSVFLFPPKPKDTLMISRTPEVTCVVVDVSHEDPEVKFNWYVDGVEVHNAKTKPREEQYNSTYRVVSVLTVLHQDWLNGKEYKCKVSNKALPAPIEKTISKAKGQPREPQVYTLPPSREEMTKNQVSLTCLVKGFYPSDIAVEWESNGQPENNYKTTPPYLDSDGSFFLYSKLTVDKSRWQEGNVFSCSVLHEALHAHYTREELSLSP
light 1: DIQMTQSPSSLSASVGDRVTITCQATEEIYSGLAWYQQKPGKAPKLLIYYVSTLYEGIPARFSGSGSGTDFTLTISSLEPEDFAVYYCQTYEDVSAVTFGQGTKVEIKRTVAAPSVFIFPPSDEQLKSGTAEVVCLLNNFYPREAKVQWKVDNALQSGNSEESVTEQDSKDSTYSLSSTLTLSKADYEKHKVYACEVTHQGLSSPVTKSFNRGEC
heavy 2: QVQLVESGGGVVQPGRSLRLSCAASGFTFSEWYFMSWVRQAPGKGLEWVASIDTGSGSIDYAEWVEGRFTISRDNSKNTLYLQMNSLRAEDTAVYYCARDIGIDYNFWGPGTLVTVSSASTKGPSVFPLAPSSKSTSGGTAALGCLVEDYFPEPVTVSWNSGALTSGVHTFPAVLESSGLYSLSSVVTVPSSSLGTKTYICNVNHKPSNTKVDKRVEPKSCDKTHTCPPCPAPELRRGPSVFLFPPKPKDTLMISRTPEVTCVVVDVSHEDPEVKFNWYVDGVEVHNAKTKPREEQYNSTYRVVSVLTVLHQDWLNGKEYKCKVSNKALPAPIEKTISKAKGQPREPQVYTLPPSRKEMTKNQVSLTCLVKGFYPSDIAVEWESNGQPENNYKTTPPYLDSDGSFFLYSKLTVDKSRWQQGNVFSCSVLHEALHAHYTRKELSLSP
light 2: DIQMTQSPSSLSASVGDRVTITCQTTQSISSYLNWYQQKPGQPPKLLIYYASTKAEGIPARFSGSGLGTDFTLTISSLEPEDFAVYYCHYGISKVSFGQGTKVEIKRTVAAPSVFIFPPSDEQLKSGTAKVVCLLNNFYPREAKVQWKVDNALQSGNSKESVTEQDSKDSTYSLSSTLTLSKADYEKHKVYACEVTHQGLSSPVTKSFNRGEC
B2: DQN0344H0976/L0591//DQN0385H1255/L0605-F6 (bispecific antibody)
heavy 1: B1 heavy 1
light 1: B1 light 1
heavy 2: B1 heavy 2 with E63G, G67E
light 2: B1 light 2 with L67S
B3: DQN0344H0976/L0591//DQN0385H1270/L0722-F6 (bispecific antibody)
heavy 1: B1 heavy 1
light 1: B1 light 1
heavy 2: B1 heavy 2
light 2: B1 light 2 with E79Q

Columns and labels:
Assay in all cases: cell-based or functional assay
[1] = target: HLA-DQ2.5 on IHW09023 cells loaded with gamma 4a gliadin peptide (human; wheat)
[2] = target: HLA-DQ2.5 on IHW09023 cells loaded with 33 mer gliadin peptide (human; wheat)
[3] = target: HLA-DQ2.5 on IHW09023 cells loaded with omega1/2 gliadin peptide (human; wheat)
[4] = target: HLA-DQ2.5 on IHW09023 cells loaded with gamma 1 gliadin peptide (human; wheat)
[5] = target: HLA-DQ2.5 on IHW09023 cells loaded with gamma 4d gliadin peptide (human; wheat)
[6] = target: HLA-DQ2.5 on IHW09023 cells loaded with gamma 2 gliadin peptide (human; wheat)
[7] = target: HLA-DQ2.5 on IHW09023 cells loaded with gamma 3 gliadin peptide (human; wheat)
[8] = target: HLA-DQ2.5 on IHW09023 cells loaded with BC hordein peptide (human; barley)

Binder	IC50, γ4a gliadin TCR, 25 µM γ4a gliadin [1]	IC50, α1b gliadin TCR, 250 nM 33mer gliadin [2]	IC50, α2 gliadin TCR, 250 nM 33mer gliadin [2]	IC50, ω1 gliadin TCR, 25 µM ω1/2 gliadin [3]	IC50, ω2 gliadin TCR, 250 nM ω1/2 gliadin [3]	IC50, γ1 gliadin TCR, 250 nM γ1 gliadin [4]	IC50, γ4d gliadin TCR, 100 µM γ4d gliadin [5]	IC50, γ2 gliadin TCR, 250 nM γ2 gliadin [6]	IC50, γ3 gliadin TCR, 100 µM γ3 gliadin [7]	IC50, BC hordein TCR, 250 nM BC hordein [8]	IC50, α1a gliadin TCR, 250 nM 33mer gliadin [2]
B1	749 ng/mL	1.36 ng/mL	0.34 ng/mL	2.07 ng/mL	0.26 ng/mL	1.05 ng/mL	11.8 ng/mL	182 ng/mL	2.4 ng/mL	12 ng/mL	
B2	1430 ng/mL	2.66 ng/mL	0.56 ng/mL	2.62 ng/mL	0.25 ng/mL	0.91 ng/mL	12.4 ng/mL	440 ng/mL	2.31 ng/mL	13.6 ng/mL	0.49 ng/mL
B3	726 ng/mL	1.41 ng/mL	0.31 ng/mL	2.55 ng/mL	0.26 ng/mL	0.66 ng/mL	16.3 ng/mL	281 ng/mL	2.88 ng/mL	13.2 ng/mL	0.38 ng/mL
